Entries after “also recorded” stand apart in the source; their conditions may differ. Marks after values point to notes of the source that are not given here.

Assay [1] deals with bovine adrenal capillary endothelial cells. Description: Endothelial cell migration assay (modified Boyden chamber), bovine adrenal capillary endothelial cells. It is filed as cell-based. Here is the method:
(§1) The cells were plated on gelatinized Nucleopore membranes (5 μm pores for bovine capillary cells and 8 μm pores for other cells) in an inverted modified Boyden chamber. After two hours, the chamber was reinverted and test substances added to the top wells of each. Specifically, populations were exposed to either culture medium alone (control), 10 ng/ml bFGF, 2 nM PEDF (full length PEDF), or both 10 ng/ml bFGF (basic fibroblast growth factor) and 10 nM PEDF. The cells were then permitted to migrate for 3-4 hours. Following this, the membranes were fixed and stained, and the number of cells that had migrated were counted.
The amount of a given factor necessary to achieve 50% of migration was determined and is reported here as ED50.
In particular, aFGF was employed at a concentration of 50 ng/ml, bFGF was employed at a concentration of 10 ng/ml, IL-8 was employed at a concentration of 40 ng/ml, PDGF was employed at a concentration of 250 pg/ml, and VEGF was employed at a concentration of 100 pg/ml.
In studies aimed at identifying antiangiogenic factors in the eye that might be regulated by the retinoblastoma tumor suppressor gene (Rb), media was fractionated where the media was previously conditioned by a retinoblastoma cell line that had been infected with a retrovirus expressing the wild-type Rb gene, WERI-Rb-27R. (Xu et al., 1991, Cancer Res. 51:4481). […] PEDF was purified from WERI-Rb-27R serum-free conditioned media by sequential steps consisting of dialysis (molecular mass cutoff, 30 kD) against distilled water, 60 to 95% ammonium sulfate precipitation, step elution from lentil lectin Sepharose 4B (Pharmacia) with 0.5 M α-methyl-D-mannopyranoside, and elution from a HiTrap heparin Sepharose column (Pharmacia) with increasing NACl gradient. (Xu, et al., 1991, Cancer Res. 51:4481). […] Migration assays were performed in quadruplicate for each sample with bovine adrenal capillary endothelial cells or human dermal microvascular endothelial cells (Clonetics, San Diego, Calif.) as described. (Polverini, et al., 1991, Methods Enzymol. 198:440). To combine multiple experiments, background migration (Bkgd) was first subtracted toward vehicle (0.1% bovine serum albumin) and them normalized data by setting maximum migration toward inducer alone to 100%. All experiments were repeated two to five times. Statistics were performed on raw data before normalization with the Student's t test. Standard errors were converted to percentages. […] Single-letter abbreviations for the amino acid residues are as follows: A, Ala; D, Asp; E. Glu; F. Phe; G, Gly; I, Ile; L, Leu; M, Met; P, Pro; Q, Gln; R, Arg; S, Ser; T, Thr; V, Val; X, any amino acid; and Y, Tyr.

For assay [2], the system named is human dermal microvascular endothelial cells. In words: Endothelial cell migration assay (modified Boyden chamber), human dermal microvascular endothelial cells. Conditions: 10 ng/ml bFGF plus PEDF; FIG. 1. It is filed as cell-based. How it is done: as §1
Additional truncated peptides derived from PEDF were tested for efficacy in the endothelial cell migration assay using human dermal microvascular endothelial cells (Clonetics, Cell Systems) at passage 9 in a modified Boyden Chamber, as described above, and the results are shown in FIG. 7. In FIG. 7A, the cells were exposed to the gradient of VEGF in the presence of purified recombinant PEDF (rPEDF), bacterially produced PEDF (BH) or PEDF peptides containing only amino acid residues 78-121 (44-mer) and 44-77 (34-mer) referring to SEQ ID NO:1. Neutralizing antibodies were added where shown to verify if the anti-angiogenic effect is specific to PEDF peptides and not due to contamination. Both full length PEDF preparations were used at 25 nM, neutralizing polyclonal antiserum against PEDF was used at 1:200 dilution, recombinant human VEGF (R&D Systems) at 200 pg/ml. In FIG. 7B, the cells were exposed to the gradient of VEGF in the presence of increasing concentrations of 34-mer and 44-mer peptides. The antiserum used in this experiment was not affinity purified, whereas the antiserum used in all other experiments presented herein was affinity purified.

In assay [3] the test system is capillary endothelial cells. In words: bFGF-induced proliferation of capillary endothelial cells. The assay is classed as cell-based. The note with it: PEDF doses of 1.0 nM or greater. An excerpt: Human PEDF cDNA was engineered by polymerase chain reaction to encode a COOH-terminal hexahistidine tag, cloned into pCEP4 (Invitrogen, Carlsbad, Calif.), and transfected into human embryonic kidney cells. Recombinant PEDF was purified from the conditioned media with the Xpress Protein Purification System (Invitrogen, Carlsbad, Calif.).

Assay [4] concerns SK-N-BE(2) and SK-N-SH neuroblastoma cells. In words: Differentiation of cultured human neuroblastoma cells (neurite outgrowth). Conditions: in vitro, 24 hours, purified histidine tagged PEDF; FIGS. 9, 10. It is filed as cell-based. How it is done:
In vitro experiments were conducted to verify the effect of PEDF on cell lines derived from neuroblastoma tumors. Two neuroblastoma derived cell lines were obtained from the American Tissue Type and Culture, SK-N-BE(2) and SK-N-SH. Both cell lines were maintained in culture in DMEM containing 10% fetal bovine serum (Flow Laboratories, McLean, Va.) in 37° C. and 5% CO2. Cells (1.25×10^4/ml) were resuspended, and 1 ml/well was used to seed 24 well plates. Twenty-four hours later, PEDF was added to triplicate wells at […] , 0.75, 1 or 10 nM, and the cells were incubated for an additional 24 hours. The percentage of differentiated cells was determined by counting the total number of cells in three non-overlapping 1 mm^2 areas per well.

The next assay relates to retina of C57/BL6 mice. In words: Hyperoxia-induced ischemic retinopathy, systemic treatment. It is filed as in vivo, mouse. Conditions: day 12 through 16. How it is done: Retinopathy was induced in C57/BL6 mice by placing seven day old mice with their dams in an oxygen tent and maintaining the animals in a 75% oxygen/25% nitrogen environment until day twelve. On day twelve, the animals were removed from the tent and placed at ambient atmosphere (21% oxygen). From day twelve through day sixteen, pups were treated via intraperitoneal injection once per day with 100 μl of either phosphate buffered saline (PBS) vehicle, or 11.2 μg or 22.4 μg PEDF in PBS. Pups were anesthetized with Metaphane and perfused with 1 ml of fixative (4% paraformaldehyde/100 mM sodium phosphate buffer (pH 7.2)/4% sucrose) through the left ventricle of the heart. Eyes were removed and placed in fixative, embedded in paraffin, and processed for histologic examination. Cross sections of the eye were made, stained with hematoxylin-phloxine-saffarin (HPS), and the number of endothelial cell nuclei crossing the inner limiting membrane of the retina were counted in one cross section that contained the cornea, lens, retina and optic nerve. FIG. 16A illustrates retinopathy in the eye of a PBS treated animal, the box surrounds a vascular tuft that has penetrated the inner limiting membrane of the retinal in the low power picture. FIGS. 16C and 16D illustrate the eye of a PEDF treated mouse, no vascular tufts are present. The # of endothelial cell nuclei were quantified (Table 3).

B1: PEDF: full length pigment epithelium derived growth factor, SEQ ID NO:1; purified from WERI-Rb-27R medium or recombinant histidine-tagged (protein, listed as Homo Sapiens)
chain: MQALVLLLCIGALLGHSSCQNPASPPEEGSPDPDSTGALVEEEDPFFKVPVNKLAAAVSNFGYDLYRVRSSMSPTTNVLLSPLSVATALSALSLGADERTESIIHRALYYDLISSPDIHGTYKELLDTVTAPQKNLKSASRIVFEKKLRIKSSFVAPLEKSYGTRPRVLTGNPRLDLQEINNWVQAQMKGKLARSTKEIPDEISILLLGVAHFKGQWVTKFDSRKTSLEDFYLDEERTVRVPMMSDPKAVLRYGLDSDLSCKIAQLPLTGSMSIIFFLPLKVTQNLTLIEESLTSEFIHDIDRELKTVQAVLTVPKLKLSYEGEVTKSLQEMKLQSLFDSPDFSKITGKPIKLTQVEHRAGFEWNEDGAGTTPSPGLQPAHLTFPLDYHLNQPFIFVLRDTDTGALLFIGKILDPRGP
As for B1, the “migration, percentage of maximal migration” value is “considerably less migration was observed” in assay [1] (10 ng/ml bFGF plus PEDF, FIG. 1) and “considerably less migration was observed” in assay [2]. Besides, the “migration toward different angiogenic inducers” value in assay [1] (0.1 μg/ml PEDF, aFGF, bFGF, IL-8, PDGF, VEGF, FIG. 3) is reported as “considerably inhibited; also recorded: inhibited endothelial cell migration toward every angiogenic inducer we tested”. Also, the “potency at inhibiting endothelial cell migration, dose response” value in assay [1] (migration towards bFGF, FIGS. 4 and 5) was “active at sub-nanomolar concentrations”. Besides, the “inhibition of bFGF-induced proliferation” value in assay [3] was 40%. In addition, the “differentiation of neuroblastoma cells” value in assay [4] is recorded as “triggered differentiation of the cells”. Further, the “Mean number of endothelial cell nuclei crossing ILM into vitreous per cross section” value is given as 18.6 +/− 2.2* in the assay on retina of C57/BL6 mice (11.2 μg PEDF/day intraperitoneal) and 18.2 +/− 2.5* with retina of C57/BL6 mice (22.4 μg PEDF/day intraperitoneal).

Values taken from patent US6919309B2, “Methods and compositions for inhibiting angiogenesis” (Northwestern University, priority 1997, dated 2005).
